Patent US20170183383A1 (JIANG XIANXING, published 2017)
Non-standard residues stand in square brackets, D forms with d. Groups on a side chain read outwards from the residue. Primed or numbered codes have the meaning given here. No end group written: not given here. *: point of attachment. C18 diacid = O=C(O)CCCCCCCCCCCCCCCCC(=O)*; Palmitoyl = CCCCCCCCCCCCCCCC(=O)*; PEG2′ = not defined here; Aib = CC(C)(N)C(=O)O

What follows are binders tested against human glucagon-like peptide-1 receptor (human, UniProt P43220 24-463) (assay: cell-based or functional assay).
human glucagon-like peptide-1 receptor, sequence (P43220 24-463): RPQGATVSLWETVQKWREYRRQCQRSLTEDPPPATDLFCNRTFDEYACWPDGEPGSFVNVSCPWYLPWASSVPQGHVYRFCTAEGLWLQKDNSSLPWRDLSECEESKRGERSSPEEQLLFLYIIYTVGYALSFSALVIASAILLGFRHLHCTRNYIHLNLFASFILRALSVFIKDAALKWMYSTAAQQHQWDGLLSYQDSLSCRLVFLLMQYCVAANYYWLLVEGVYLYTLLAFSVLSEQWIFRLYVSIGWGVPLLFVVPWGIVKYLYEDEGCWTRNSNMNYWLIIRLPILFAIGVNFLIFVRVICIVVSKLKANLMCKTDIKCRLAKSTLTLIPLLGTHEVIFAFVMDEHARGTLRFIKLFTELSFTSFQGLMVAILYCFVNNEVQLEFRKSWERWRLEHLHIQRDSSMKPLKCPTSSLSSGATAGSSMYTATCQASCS

Binder | GLP-1R (EC50, nM), CRE-luciferase in HEK-293 cells [nM]
H[dS]QGTFTSDYSKYLDSK([PEG2′-PEG2′-Glu-C18 diacid])AAHDFVEWLLRA-NH2 [Compound 1] | 0.23
H[Aib]QGTFTSDK([PEG2′-PEG2′-Glu-C18 diacid])SKYLDERRAQDFVQWLLDGGPSSGAPPPS-NH2 [Compound 20] | 0.09
H[dS]QGTFTSDYSKYLDSK([PEG2′-PEG2′-Glu-C18 diacid])AAHDFVEWLLNGGPSSGAPPPS-NH2 [Compound 3] | 0.59
H[dS]QGTFTSDK([PEG2′-PEG2′-C18 diacid])SKYLD[Aib]RRAQDFVQWLMNTGGPSSGAPPPS-NH2 [Compound 6] | 0.1
H[dS]QGTFTSDYSK([PEG2′-PEG2′-C18 diacid])KLD[Aib]RRAQDFVQWLMNTGGPSSGAPPPS-NH2 [Compound 16] | 0.6
H[Aib]QGTFTSDK([PEG2′-PEG2′-Glu-C18 diacid])SKYLD[Aib]RRAQDFVQWLLDGGPSSGAPPPS-NH2 [Compound 22] | 0.06
H[dS]QGTFTSDYSKYLDK([PEG2′-PEG2′-C18 diacid])RRAQDFVQWLMNTGGPSSGAPPPS-NH2 [Compound 9] | 0.52
H[dS]QGTFTSDYSK([PEG2′-PEG2′-Glu-Palmitoyl])KLD[Aib]RRAQDFVQWLMNTGGPSSGAPPPS-NH2 [Compound 17] | 0.68
H[dS]QGTFTSDYSK([PEG2′-PEG2′-Glu-C18 diacid])KLD[Aib]RRAQDFVQWLMNTGGPSSGAPPPS-NH2 [Compound 18] | 0.76
H[dS]QGTFTSDYSKYLDEKAAK([PEG2′-PEG2′-Glu-C18 diacid])EFIEWLLNGGPSSGAPPPS-NH2 [Compound 4] | 0.13
H[dS]QGTFTSDK([PEG2′-PEG2′-Palmitoyl])SKYLD[Aib]RRAQDFVQWLMNTGGPSSGAPPPS-NH2 [Compound 5] | 0.06
H[dS]QGTFTSDK([PEG2′-PEG2′-Glu-C18 diacid])SKYLD[Aib]RRAQDFVQWLMNTGGPSSGAPPPS-NH2 [Compound 8] | 0.2
H[dS]QGTFTSDYSKYLD[Aib]K([PEG2′-PEG2′-Glu-Palmitoyl])RAQDFVQWLMNTGGPSSGAPPPS-NH2 [Compound 13] | 0.44
H[dS]QGTFTSDYSKYLDK([PEG2′-PEG2′-Glu-Palmitoyl])RRAQDFVQWLMNTGGPSSGAPPPS-NH2 [Compound 10] | 0.35
H[dS]QGTFTSDYSKYLD[Aib]K([PEG2′-PEG2′-C18 diacid])RAQDFVQWLMNTGGPSSGAPPPS-NH2 [Compound 12] | 0.32
H[dS]QGTFTSDYSKYLDEKAAK([PEG2′-PEG2′-Glu-C18 diacid])EFIEWLLRA-NH2 [Compound 2] | 0.39
H[dS]QGTFTSDYSKYLDEKAAK([PEG2′-PEG2′-Glu-Palmitoyl])EFIEWLLNGGPSSGAPPPS-NH2 [Compound 24] | 0.16
H[dS]QGTFTSDYSK([PEG2′-PEG2′-Palmitoyl])KLD[Aib]RRAQDFVQWLMNTGGPSSGAPPPS-NH2 [Compound 15] | 1.5
H[Aib]QGTFTSDK([PEG2′-PEG2′-Glu-Palmitoyl])SKYLD[Aib]RRAQDFVQWLLDGGPSSGAPPPS-NH2 [Compound 21] | 0.15
H[dS]QGTFTSDYSKYLDK([PEG2′-PEG2′-Glu-C18 diacid])RRAQDFVQWLMNTGGPSSGAPPPS-NH2 [Compound 11] | 0.15
H[Aib]QGTFTSDK([PEG2′-PEG2′-Glu-Palmitoyl])SKYLDERRAQDFVQWLLDGGPSSGAPPPS-NH2 [Compound 19] | 0.14
H[dS]QGTFTSDYSKYLD[Aib]K([PEG2′-PEG2′-Glu-C18 diacid])RAQDFVQWLMNTGGPSSGAPPPS-NH2 [Compound 14] | 0.4
H[dS]QGTFTSDYSKYLDEKAAK([PEG2′-PEG2′-Palmitoyl])EFIEWLLNGGPSSGAPPPS-NH2 [Compound 23] | 0.13

The binders below were run against human glucagon receptor (human, UniProt P47871 26-477) (assay: cell-based or functional assay).

Binder | GCGR (EC50, nM), CRE-luciferase in HEK-293 cells [nM]
H[dS]QGTFTSDYSKYLDSK([PEG2′-PEG2′-Glu-C18 diacid])AAHDFVEWLLRA-NH2 [Compound 1] | 0.54
H[Aib]QGTFTSDK([PEG2′-PEG2′-Glu-C18 diacid])SKYLDERRAQDFVQWLLDGGPSSGAPPPS-NH2 [Compound 20] | 0.48
H[dS]QGTFTSDYSKYLDSK([PEG2′-PEG2′-Glu-C18 diacid])AAHDFVEWLLNGGPSSGAPPPS-NH2 [Compound 3] | 1.02
H[dS]QGTFTSDK([PEG2′-PEG2′-C18 diacid])SKYLD[Aib]RRAQDFVQWLMNTGGPSSGAPPPS-NH2 [Compound 6] | 0.33
H[dS]QGTFTSDYSK([PEG2′-PEG2′-C18 diacid])KLD[Aib]RRAQDFVQWLMNTGGPSSGAPPPS-NH2 [Compound 16] | 0.2
H[dS]QGTFTSDK([PEG2′-PEG2′-Glu-Palmitoyl])SKYLD[Aib]RRAQDFVQWLMNTGGPSSGAPPPS-NH2 [Compound 7] | 0.34
H[Aib]QGTFTSDK([PEG2′-PEG2′-Glu-C18 diacid])SKYLD[Aib]RRAQDFVQWLLDGGPSSGAPPPS-NH2 [Compound 22] | 0.32
H[dS]QGTFTSDYSKYLDK([PEG2′-PEG2′-C18 diacid])RRAQDFVQWLMNTGGPSSGAPPPS-NH2 [Compound 9] | 0.18
H[dS]QGTFTSDYSK([PEG2′-PEG2′-Glu-Palmitoyl])KLD[Aib]RRAQDFVQWLMNTGGPSSGAPPPS-NH2 [Compound 17] | 0.58
H[dS]QGTFTSDYSK([PEG2′-PEG2′-Glu-C18 diacid])KLD[Aib]RRAQDFVQWLMNTGGPSSGAPPPS-NH2 [Compound 18] | 0.18
H[dS]QGTFTSDYSKYLDEKAAK([PEG2′-PEG2′-Glu-C18 diacid])EFIEWLLNGGPSSGAPPPS-NH2 [Compound 4] | 0.39
H[dS]QGTFTSDK([PEG2′-PEG2′-Palmitoyl])SKYLD[Aib]RRAQDFVQWLMNTGGPSSGAPPPS-NH2 [Compound 5] | 0.43
H[dS]QGTFTSDK([PEG2′-PEG2′-Glu-C18 diacid])SKYLD[Aib]RRAQDFVQWLMNTGGPSSGAPPPS-NH2 [Compound 8] | 0.18
H[dS]QGTFTSDYSKYLD[Aib]K([PEG2′-PEG2′-Glu-Palmitoyl])RAQDFVQWLMNTGGPSSGAPPPS-NH2 [Compound 13] | 0.16
H[dS]QGTFTSDYSKYLDK([PEG2′-PEG2′-Glu-Palmitoyl])RRAQDFVQWLMNTGGPSSGAPPPS-NH2 [Compound 10] | 0.11
H[dS]QGTFTSDYSKYLD[Aib]K([PEG2′-PEG2′-C18 diacid])RAQDFVQWLMNTGGPSSGAPPPS-NH2 [Compound 12] | 0.15
H[dS]QGTFTSDYSKYLDEKAAK([PEG2′-PEG2′-Glu-C18 diacid])EFIEWLLRA-NH2 [Compound 2] | 2.8
H[dS]QGTFTSDYSKYLDEKAAK([PEG2′-PEG2′-Glu-Palmitoyl])EFIEWLLNGGPSSGAPPPS-NH2 [Compound 24] | 0.58
H[dS]QGTFTSDYSK([PEG2′-PEG2′-Palmitoyl])KLD[Aib]RRAQDFVQWLMNTGGPSSGAPPPS-NH2 [Compound 15] | 0.6
HSQGTFTSDYSKYLDSRRAQDFVQWLMNTKRNKNNIA (ligand) [Oxyntomodulin] | 6.2
H[Aib]QGTFTSDK([PEG2′-PEG2′-Glu-Palmitoyl])SKYLD[Aib]RRAQDFVQWLLDGGPSSGAPPPS-NH2 [Compound 21] | 0.66
H[dS]QGTFTSDYSKYLDK([PEG2′-PEG2′-Glu-C18 diacid])RRAQDFVQWLMNTGGPSSGAPPPS-NH2 [Compound 11] | 0.18
H[Aib]QGTFTSDK([PEG2′-PEG2′-Glu-Palmitoyl])SKYLDERRAQDFVQWLLDGGPSSGAPPPS-NH2 [Compound 19] | 0.56
H[dS]QGTFTSDYSKYLD[Aib]K([PEG2′-PEG2′-Glu-C18 diacid])RAQDFVQWLMNTGGPSSGAPPPS-NH2 [Compound 14] | 0.19
H[dS]QGTFTSDYSKYLDEKAAK([PEG2′-PEG2′-Palmitoyl])EFIEWLLNGGPSSGAPPPS-NH2 [Compound 23] | 0.43
